Measured values published in paper PMC8229645.

How the values were obtained:
[1] = biological target: Human astrovirus 2 capsid spike (Spike 2) (human astrovirus serotype 2); assay: SEC
[2] = biological target: Human astrovirus 6 capsid spike (Spike 6) (human astrovirus serotype 6); assay: SEC

| Substance | stoichiometry N [1] | stoichiometry N [2] |
| --- | --- | --- |
| Human astrovirus 2 capsid spike (Spike 2) (domain or fragment) | 2 | – |
| Human astrovirus 6 capsid spike (Spike 6) (domain or fragment) | – | 2 |
